US20060134638, “Error reduction in automated gene synthesis” (Blue Heron Biotechnology, Inc., published 2006)

Experiments:
MutS (TaqMutS) [1] = biological target: T1, MutS (TaqMutS) (Thermus aquaticus, UniProt Q56215 Q56215:1-811); conditions: error frequency 1/212 to 1/1593; 500 nM MutS, 40 nM DNA, 60 C
T1 sequence: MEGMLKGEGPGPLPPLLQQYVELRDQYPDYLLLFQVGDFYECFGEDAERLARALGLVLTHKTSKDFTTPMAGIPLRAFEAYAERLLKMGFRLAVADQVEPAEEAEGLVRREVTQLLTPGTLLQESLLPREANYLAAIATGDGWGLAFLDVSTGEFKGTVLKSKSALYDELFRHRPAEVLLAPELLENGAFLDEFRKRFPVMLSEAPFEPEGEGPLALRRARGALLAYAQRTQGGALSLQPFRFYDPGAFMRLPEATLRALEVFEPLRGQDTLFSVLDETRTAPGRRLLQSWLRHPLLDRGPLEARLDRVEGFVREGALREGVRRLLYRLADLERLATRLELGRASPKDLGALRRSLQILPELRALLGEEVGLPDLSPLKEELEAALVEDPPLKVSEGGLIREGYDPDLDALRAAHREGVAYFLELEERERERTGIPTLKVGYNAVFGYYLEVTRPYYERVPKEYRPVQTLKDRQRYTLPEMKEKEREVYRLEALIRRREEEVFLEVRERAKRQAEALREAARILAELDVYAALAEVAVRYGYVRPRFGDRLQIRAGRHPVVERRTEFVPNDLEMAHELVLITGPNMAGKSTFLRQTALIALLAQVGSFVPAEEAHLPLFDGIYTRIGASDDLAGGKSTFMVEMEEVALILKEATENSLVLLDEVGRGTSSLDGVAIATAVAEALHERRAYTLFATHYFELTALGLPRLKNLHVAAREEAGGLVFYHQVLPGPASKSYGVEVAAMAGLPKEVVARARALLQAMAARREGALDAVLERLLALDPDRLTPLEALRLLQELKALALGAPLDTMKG

MutS (TaqMutS) [2] = biological target: T1, MutS (TaqMutS); assay: homoduplex recovered in flow-through; white:blue ratio shifted 1:1 to 60:1; conditions: chain copies: 2; perfect duplex
Method: The 410 bp white:blue test heteroduplex was used to determine the best conditions for separation of a model A or T deletion heteroduplex from perfectly matched homoduplex molecules using TaqMutS. A defined ratio of heteroduplex and homoduplex 410 bp fragments were incubated with TaqMutS at 60° C. for 20 minutes and subsequently passed through enzyme removal columns (Micropure-EZ enzyme removers from Millipore). These columns are marketed as quick alternatives to phenol/chloroform methods for removing proteins from DNA. The aim was to retain the TaqMutS protein bound to heteroduplex DNA in the column and retrieve the homoduplex DNA in the flow-through.

“354 bp synthetic DNA, error-containing population” was tested. Which activity (% errors removed) (MutS (TaqMutS) [1]) did it give?
Its activity (% errors removed) is > 85.

B1: 410 bp AflIII/EcoRI homoduplex (pUC121) (dsDNA)
DNA 1: GAAGAGCGCCC
DNA 2: GGGCGCTCTTC
Does B1 bind (MutS (TaqMutS) [2])?
Result: no binding
